Test results: paper PMC12373785, “Biochemical characterisation supports a central role for Oep80 from Arabidopsis thaliana in chloroplastic β-barrel protein assembly” (Communications Biology, 2025)
Positions count from the first letter of the chain named. In names and notes the source's numbering stands.

B1: Oep80^β-6×His (β-barrel domain of Arabidopsis thaliana Oep80, C-terminal 6×His) (domain or fragment, A. thaliana, UniProt Q9C5J8 398-732, looked up)
chain: SGGFSAGGGISSGITSGPLSGLIGSFAYSHRNLFGRNQKLNVSLERGQIDSIFRINYTDPWIEGDDKRTSRSIMVQNSRTPGNLVHGNQPDNSSLTIGRVTAGVEYSRPFRPKWNGTAGLIFQHAGARDEQGNPIIKDFYSSPLTASGKPHDETMLAKLESIYTGSGDQGSTMFAFNMEQGLPVLPEWLCFNRVTGRARKGIHIGPARFLFSLSGGHVVGKFSPHEAFVIGGTNSVRGYEEGAVGSGRSYVVGSGELSFPVRGPVEGVIFTDYGTDMGSGSTVPGDPAGARLKPGSGYGYGLGVRVDSPLGPLRLEYAFNDQHAGRFHFGVGLRN
notes: AtOep80 (also known as Toc75-V), A. thaliana, β barrel domain, residues 398-732; Mostly dimeric in solution by native MS; Cloned in modified Pet15b for the C-terminal 6×His; also called AtOep80 β barrel domain; Toc75-V β-barrel domain; not shown: His6, C-terminal, kept
B2: Oep21a β-1 wild-type peptide (peptide)
peptide: GKWNVRYDL
notes: also called Oep21a β-signal peptide; Oep21a β-1 w.t; source: synthetic peptide, bought: Proteogenix (99% purity)
B3: Oep21a β-1 D-to-A peptide (peptide)
peptide: GKWNVRYAL
notes: A. thaliana Oep21a β-1, residues 159-167, penultimate residue D changed to A; also called D-to-A mutant; source: synthetic peptide, bought: Proteogenix (99% purity)
B4: Oep21a β-1 D-to-E peptide (peptide)
peptide: GKWNVRYEL
notes: A. thaliana Oep21a β-1, residues 159-167, penultimate residue D changed to E; also called D-to-E mutation; source: synthetic peptide, bought: Proteogenix (99% purity)
B5: 6×His-Oep80^β (N-terminally tagged β-barrel domain of A. thaliana Oep80) (domain or fragment, UniProt Q9C5J8 398-732, looked up)
chain: B1 chain
notes: AtOep80 (Toc75-V), A. thaliana, β barrel domain, residues 398-732; Cloned in Pet28a (N-terminal 6×His, removable by thrombin); also called tagged Oep80^β; 6×His-tagged version; not shown: His6, N-terminal, kept
B6: untagged Oep80^β (6×His-Oep80^β after thrombin cleavage) (domain or fragment, A. thaliana, UniProt Q9C5J8 398-732, looked up)
chain: B1 chain
notes: AtOep80 (Toc75-V), A. thaliana, β barrel domain, residues 398-732; also called tag-free Oep80^β; not shown: His6, N-terminal, cleaved
B7: Oep80^β C587S/S408C/G727C (domain or fragment, A. thaliana, UniProt Q9C5J8 398-732, looked up)
chain: B1 chain with S11C, C190S, G330C
modifications: intramolecular disulfide between the introduced cysteines 408 and 727 (after Cu2+ incubation)
notes: AtOep80, A. thaliana, β barrel domain, residues 398-732, with native cysteine C587 removed and cysteines introduced in the β1 and β-1 strands

Assays:
[1] = target: Oep80^β mutant with the Oep21a β-1 peptide sequence covalently attached via a flexible GS linker (A. thaliana) (UniProt Q9C5J8); test: native MS; protein alone, buffer-exchanged into 200 mM ammonium acetate pH 8.0, 0.5% C8E4; for the oxidised C587S/S408C/G727C mutant 0.1 mM CuSO4 pre-incubated 4 h before buffer exchange; monomer and dimer charge state series
[2] = target: the molecule itself; test: as above
[3] = target: B1; test: native MS; 100 µM peptide with 7 µM Oep80^β-6×His in 200 mM ammonium acetate pH 8.0, 0.5% C8E4; peptide-bound relative to unbound species, n = 4; conditions: both partners purified

Oep80^β mutant with the Oep21a β-1 peptide sequence covalently attached via a flexible GS linker (from UniProt Q9C5J8 398-732)
stoichiometry N [1]: 2

B1
stoichiometry N [2]: 2

B2
binding result [3]: binds

B3
binding result [3]: binds

B4
binding result [3]: binds

B5
stoichiometry N [2]: 2

B6
stoichiometry N [2]: 2

B7
stoichiometry N [2]: 2
